The values below are quoted from earlier work in paper PMC10966181.

The series addresses Tyr159 (UniProt position 159, ISIHVYGANIG). The experiment in a line: kinetics. The conditions noted are these: Catalytically active Fe(II)-MDO turning over the substrate 3MPA.

For “3-mercaptopropionate dioxygenase (MDO, AvMDO) (Azotobacter vinelandii)”, the pKa (usually the negative logarithm of the acid dissociation constant) is given as 9.2 ± 0.1.
With “3-mercaptopropionate dioxygenase (MDO) H157N variant (Azotobacter vinelandii; H157N)”, the pKa was 9.9 ± 0.1.
